Tested on: Escherichia coli TOP10
Experiment: shrunken log2 fold change of peptide-encoding DNA abundance (4.5 h post-induction vs induction); higher = less antimicrobial activity (less host growth inhibition)
Details: time post-induction: 4.5 h; library: site-saturation at positions 5, 18, 19, 20
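Note: peptides expressed intracellularly from a pBAD plasmid library in pooled LB shake-flask culture, induced with 0.3% L-arabinose, DNA abundance read by NGS, three biological replicates, DESeq2 with apeglm shrinkage.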

Row | Sequence | shrunken log2 fold change
1 | RRIRIRPPRLPRPRPRPRQGPRP | 0.0734
2 | RRIRIRPPRLPRPRPRPRRNPRP | -0.0717
3 | RRIRIRPPRLPRPRPRPRRSPRP | 0.347
4 | RRIRIRPPRLPRPRPRPRTGPRP | -0.0659
5 | RRIRIRPPRLPRPRPRPRTQPRP | 0.106
6 | RRIRIRPPRLPRPRPRPRVHPRP | -0.0227
7 | RRIRIRPPRLPRPRPRPRVIPRP | -0.209
8 | RRIRIRPPRLPRPRPRPRWCPRP | -0.11
9 | RRIRIRPPRLPRPRPRPRWGPRP | 0.181
10 | RRIRIRPPRLPRPRPRPRWHPRP | 0.139
11 | RRIRIRPPRLPRPRPRPRWNPRP | -0.249
12 | RRIRIRPPRLPRPRPRPRWSPRP | 0.0458
13 | RRIRIRPPRLPRPRPRPRYLPRP | 0.0743
14 | RRIRIRPPRLPRPRPRPRYQPRP | 0.00748
15 | RRIRIRPPRLPRPRPRPSAGPRP | -0.334
16 | RRIRIRPPRLPRPRPRPSAMPRP | -0.349
17 | RRIRIRPPRLPRPRPRPSCYPRP | -0.392
18 | RRIRIRPPRLPRPRPRPSGGPRP | 0.0858
19 | RRIRIRPPRLPRPRPRPSGHPRP | -0.397
20 | RRIRIRPPRLPRPRPRPSGMPRP | -0.433
21 | RRIRIRPPRLPRPRPRPSGWPRP | 0.037
22 | RRIRIRPPRLPRPRPRPSHGPRP | 0.09
23 | RRIRIRPPRLPRPRPRPSHVPRP | -0.523
24 | RRIRIRPPRLPRPRPRPSIFPRP | -0.764
25 | RRIRIRPPRLPRPRPRPSIRPRP | -0.212

Row | Sequence | shrunken log2 fold change
26 | RRIRIRPPRLPRPRPRPSKMPRP | -1.18
27 | RRIRIRPPRLPRPRPRPSLEPRP | -0.05
28 | RRIRIRPPRLPRPRPRPSMCPRP | -1.33
29 | RRIRIRPPRLPRPRPRPSMQPRP | -0.221
30 | RRIRIRPPRLPRPRPRPSMWPRP | -0.178
31 | RRIRIRPPRLPRPRPRPSQPPRP | 0.101
32 | RRIRIRPPRLPRPRPRPSRQPRP | -0.747
33 | RRIRIRPPRLPRPRPRPSTCPRP | -0.548
34 | RRIRIRPPRLPRPRPRPSVQPRP | -0.51
35 | RRIRIRPPRLPRPRPRPSVRPRP | -0.238
36 | RRIRIRPPRLPRPRPRPSVTPRP | -0.781
37 | RRIRIRPPRLPRPRPRPSWLPRP | -0.373
38 | RRIRIRPPRLPRPRPRPSWPPRP | -0.227
39 | RRIRIRPPRLPRPRPRPTAQPRP | 0.154
40 | RRIRIRPPRLPRPRPRPTDCPRP | -0.196
41 | RRIRIRPPRLPRPRPRPTEYPRP | -0.251
42 | RRIRIRPPRLPRPRPRPTGAPRP | -0.0341
43 | RRIRIRPPRLPRPRPRPTGGPRP | -0.00471
44 | RRIRIRPPRLPRPRPRPTGHPRP | -0.116
45 | RRIRIRPPRLPRPRPRPTGKPRP | -0.129
46 | RRIRIRPPRLPRPRPRPTIPPRP | -0.463
47 | RRIRIRPPRLPRPRPRPTLTPRP | -0.13
48 | RRIRIRPPRLPRPRPRPTMYPRP | -0.769
49 | RRIRIRPPRLPRPRPRPTPHPRP | 0.788
50 | RRIRIRPPRLPRPRPRPTPNPRP | -0.0265

Row | Sequence | shrunken log2 fold change
51 | RRIRIRPPRLPRPRPRPTQYPRP | -0.616
52 | RRIRIRPPRLPRPRPRPTRYPRP | -0.328
53 | RRIRIRPPRLPRPRPRPTSWPRP | 0.0769
54 | RRIRIRPPRLPRPRPRPTTLPRP | -0.506
55 | RRIRIRPPRLPRPRPRPTTQPRP | 0.102
56 | RRIRIRPPRLPRPRPRPTTWPRP | -0.165
57 | RRIRIRPPRLPRPRPRPTVPPRP | 0.185
58 | RRIRIRPPRLPRPRPRPVCSPRP | -0.174
59 | RRIRIRPPRLPRPRPRPVDIPRP | -0.405
60 | RRIRIRPPRLPRPRPRPVEDPRP | -0.158
61 | RRIRIRPPRLPRPRPRPVEGPRP | -0.308
62 | RRIRIRPPRLPRPRPRPVERPRP | 0.0257
63 | RRIRIRPPRLPRPRPRPVFDPRP | -0.371
64 | RRIRIRPPRLPRPRPRPVFFPRP | -0.107
65 | RRIRIRPPRLPRPRPRPVFHPRP | -0.936
66 | RRIRIRPPRLPRPRPRPVFYPRP | -0.333
67 | RRIRIRPPRLPRPRPRPVGCPRP | 0.166
68 | RRIRIRPPRLPRPRPRPVGPPRP | 0.0747
69 | RRIRIRPPRLPRPRPRPVGTPRP | -0.126
70 | RRIRIRPPRLPRPRPRPVHHPRP | -0.732
71 | RRIRIRPPRLPRPRPRPVIPPRP | -0.358
72 | RRIRIRPPRLPRPRPRPVKWPRP | -0.0064
73 | RRIRIRPPRLPRPRPRPVLWPRP | 0.199
74 | RRIRIRPPRLPRPRPRPVMMPRP | -0.31
75 | RRIRIRPPRLPRPRPRPVQCPRP | 0.0517

Row | Sequence | shrunken log2 fold change
76 | RRIRIRPPRLPRPRPRPVQGPRP | 0.552
77 | RRIRIRPPRLPRPRPRPVRDPRP | 0.158
78 | RRIRIRPPRLPRPRPRPVSIPRP | -0.624
79 | RRIRIRPPRLPRPRPRPVSRPRP | 0.0446
80 | RRIRIRPPRLPRPRPRPVVWPRP | 0.321
81 | RRIRIRPPRLPRPRPRPVWSPRP | 0.0432
82 | RRIRIRPPRLPRPRPRPVYGPRP | -0.351
83 | RRIRIRPPRLPRPRPRPVYHPRP | -0.262
84 | RRIRIRPPRLPRPRPRPVYQPRP | -0.649
85 | RRIRIRPPRLPRPRPRPWAMPRP | -0.493
86 | RRIRIRPPRLPRPRPRPWAVPRP | -0.203
87 | RRIRIRPPRLPRPRPRPWCKPRP | -0.284
88 | RRIRIRPPRLPRPRPRPWCMPRP | -0.693
89 | RRIRIRPPRLPRPRPRPWDWPRP | 0.0472
90 | RRIRIRPPRLPRPRPRPWETPRP | -0.0306
91 | RRIRIRPPRLPRPRPRPWFKPRP | -1.74
92 | RRIRIRPPRLPRPRPRPWFLPRP | -0.802
93 | RRIRIRPPRLPRPRPRPWHNPRP | -0.169
94 | RRIRIRPPRLPRPRPRPWHTPRP | -0.113
95 | RRIRIRPPRLPRPRPRPWIEPRP | -0.186
96 | RRIRIRPPRLPRPRPRPWISPRP | -0.0286
97 | RRIRIRPPRLPRPRPRPWLIPRP | 0.0717
98 | RRIRIRPPRLPRPRPRPWMPPRP | -0.131
99 | RRIRIRPPRLPRPRPRPWNIPRP | -0.0297
100 | RRIRIRPPRLPRPRPRPWPDPRP | -0.207

Row | Sequence | shrunken log2 fold change
101 | RRIRIRPPRLPRPRPRPWREPRP | 0.158
102 | RRIRIRPPRLPRPRPRPWRMPRP | -0.473
103 | RRIRIRPPRLPRPRPRPWSAPRP | -0.649
104 | RRIRIRPPRLPRPRPRPWTVPRP | -0.15
105 | RRIRIRPPRLPRPRPRPWTWPRP | -0.204
106 | RRIRIRPPRLPRPRPRPWVHPRP | -0.0605
107 | RRIRIRPPRLPRPRPRPWVMPRP | -0.152
108 | RRIRIRPPRLPRPRPRPWVPPRP | -0.28
109 | RRIRIRPPRLPRPRPRPWWAPRP | -0.255
110 | RRIRIRPPRLPRPRPRPWWFPRP | -0.0772
111 | RRIRIRPPRLPRPRPRPWWLPRP | -0.0152
112 | RRIRIRPPRLPRPRPRPYCIPRP | -0.224
113 | RRIRIRPPRLPRPRPRPYCTPRP | -0.215
114 | RRIRIRPPRLPRPRPRPYDRPRP | -0.499
115 | RRIRIRPPRLPRPRPRPYFPPRP | -0.909
116 | RRIRIRPPRLPRPRPRPYHHPRP | -0.0849
117 | RRIRIRPPRLPRPRPRPYIDPRP | -0.484
118 | RRIRIRPPRLPRPRPRPYISPRP | -0.0173
119 | RRIRIRPPRLPRPRPRPYIWPRP | -0.0625
120 | RRIRIRPPRLPRPRPRPYKKPRP | -0.0756
121 | RRIRIRPPRLPRPRPRPYNQPRP | -1.01
122 | RRIRIRPPRLPRPRPRPYNRPRP | -0.01
123 | RRIRIRPPRLPRPRPRPYPFPRP | -0.38
124 | RRIRIRPPRLPRPRPRPYQWPRP | -0.316
125 | RRIRIRPPRLPRPRPRPYREPRP | -0.0673

Row | Sequence | shrunken log2 fold change
126 | RRIRIRPPRLPRPRPRPYTAPRP | -1.28
127 | RRIRIRPPRLPRPRPRPYTLPRP | -0.478
128 | RRIRIRPPRLPRPRPRPYTYPRP | -0.705
129 | RRIRIRPPRLPRPRPRPYVEPRP | -0.0566
130 | RRIRIRPPRLPRPRPRPYWKPRP | -0.0289
131 | RRIRIRPPRLPRPRPRPYYMPRP | -0.983
132 | RRIRIRPPRLPRPRPRPYYVPRP | -0.481
133 | RRIRKRPPRLPRPRPRPACVPRP | 0.735
134 | RRIRKRPPRLPRPRPRPADVPRP | 0.127
135 | RRIRKRPPRLPRPRPRPADWPRP | 0.666
136 | RRIRKRPPRLPRPRPRPAEHPRP | 0.12
137 | RRIRKRPPRLPRPRPRPAERPRP | 0.123
138 | RRIRKRPPRLPRPRPRPAFMPRP | 0.341
139 | RRIRKRPPRLPRPRPRPAFVPRP | 0.423
140 | RRIRKRPPRLPRPRPRPAGMPRP | 0.042
141 | RRIRKRPPRLPRPRPRPAHCPRP | -0.0571
142 | RRIRKRPPRLPRPRPRPAHMPRP | 0.686
143 | RRIRKRPPRLPRPRPRPAKKPRP | 1.06
144 | RRIRKRPPRLPRPRPRPAQFPRP | 0.258
145 | RRIRKRPPRLPRPRPRPAQMPRP | 0.139
146 | RRIRKRPPRLPRPRPRPAQQPRP | 0.344
147 | RRIRKRPPRLPRPRPRPAREPRP | 0.89
148 | RRIRKRPPRLPRPRPRPARSPRP | 0.89
149 | RRIRKRPPRLPRPRPRPARTPRP | 0.476
150 | RRIRKRPPRLPRPRPRPARWPRP | 0.464
